Reference: patent US20260285997 (published 2026)
“And” between values parts separate entries of the source, which are not always exact repeats. Identical values can stand only once.

T1: FLAG tag antigen
T1 chain: DYKDDDDK


The binders below were run against T2, FLAG-BAP (FLAG tag fused to bacterial alkaline phosphatase) (assay: SPR).

Row | Kd | Binder
1 | 6.59 nM and 9.46 nM | BEAT 2a7 FLAG arm (antibody) QVQLVQSGAEVKKPGASVKVSCKASGYSFTTYTIHWVRQAPGQGLEWIGYINPSSGYAAYNQKFQGRVTLTADKSTSTAYMELSSLRSEDTAVYYCAREKFYGYDYWGQGTTVTVSSGGGGSGGGGSGGGGSGGGGASDVVMTQSPDSLAVSLGERATINCKSSQSIVHRNGNTYLEWYQQKPGQPPKLLIYKVSNRFSGVPDRFSGSGSGTDFTLTISSLQAEDVAVYYCFQGSHVPYTFGGGTKLEIK
2 | 19.5 nM and 18.1 nM | BEAT 2a5 FLAG arm (antibody) QVQLVQSGAEVKKPGASVKVSCKASGYSFTTYTIHWVRQAPGQGLEWIGYINPSSGYAAYNQKFQGRVTLTADKSTSTAYMELSSLRSEDTAVYYCAREKFYGYDYWGQGTTVTVSSGGGGSGGGGSGGGGSGGGGASDVVMTQSPDSLAVSLGERATINCKSSQSIVHRNGNTYLEWYQQKPGQPPKLLIYKVSNRFSGVPDRFSGSGSGTDFTLTISSLQAEDVAVYYCFQGSHVPYTFGGGTKLEIK
3 | 10.8 nM and 9.09 nM | BEAT 2a8 FLAG arm (antibody) QVQLVQSGAEVKKPGASVKVSCKASGYSFTTYTIHWVRQAPGQGLEWIGYINPSSGYAAYNQKFQGRVTLTADKSTSTAYMELSSLRSEDTAVYYCAREKFYGYDYWGQGTTVTVSSGGGGSGGGGSGGGGSGGGGASDVVMTQSPDSLAVSLGERATINCKSSQSIVHRNGNTYLEWYQQKPGQPPKLLIYKVSNRFSGVPDRFSGSGSGTDFTLTISSLQAEDVAVYYCFQGSHVPYTFGGGTKLEIK
4 | 35.1 nM and 32.6 nM | BEAT 2a6 FLAG arm (antibody) QVQLVQSGAEVKKPGASVKVSCKASGYSFTTYTIHWVRQAPGQGLEWIGYINPSSGYAAYNQKFQGRVTLTADKSTSTAYMELSSLRSEDTAVYYCAREKFYGYDYWGQGTTVTVSSGGGGSGGGGSGGGGSGGGGASDVVMTQSPDSLAVSLGERATINCKSSQSIVHRNGNTYLEWYQQKPGQPPKLLIYKVSNRFSGVPDRFSGSGSGTDFTLTISSLQAEDVAVYYCFQGSHVPYTFGGGTKLEIK
5 | 34.3 nM and 20.7 nM | V4 IgG (Anti-FLAG-M2-V4) (antibody, V domains shown) VH: QVQLVQSGAEVKKPGASVKVSCKASGYSFTTYTIHWVRQAPGQGLEWIGYINPSSGYAAYNQKFQGRVTLTADKSTSTAYMELSSLRSEDTAVYYCAREKFYGYDYWGQGTTVTVSS VL: DVVMTQSPDSLAVSLGERATINCKSSQSIVHRNGNTYLEWYQQKPGQPPKLLIYKVSNRFSGVPDRFSGSGSGTDFTLTISSLQAEDVAVYYCFQGSHVPYTFGGGTKLEIK
6 | 27.7 nM and 23.2 nM | V7 IgG (Anti-FLAG-M2-V7) (antibody, V domains shown) VH: QVQLVQSGAEVKKPGASVKVSCKASGYSFTTYTMHWVRQAPGQGLEWMGYINPSSGYAAYNQKFQGRVTMTADKSTSTAYMELSSLRSEDTAVYYCAREKFYGYDYWGQGTTVTVSS VL: DVVMTQSPDSLAVSLGERATINCKSSQSIVHRNGNTYLEWYQLKPGQPPKLLIYKVSNRFSGVPDRFSGSGSGTDFTLTISSLQAEDVAVYYCFQGSHVPYTFGGGTKLEIK
7 | 13.3 nM and 17 nM | BEAT 2a4 FLAG arm (antibody) DVVMTQSPDSLAVSLGERATINCKSSQSIVHRNGNTYLEWYQQKPGQPPKLLIYKVSNRFSGVPDRFSGSGSGTDFTLTISSLQAEDVAVYYCFQGSHVPYTFGGGTKLEIKGGGGSGGGGSGGGGSQVQLVQSGAEVKKPGASVKVSCKASGYSFTTYTIHWVRQAPGQGLEWIGYINPSSGYAAYNQKFQGRVTLTADKSTSTAYMELSSLRSEDTAVYYCAREKFYGYDYWGQGTTVTVSS
8 | 51.9 nM and 21.7 nM | BEAT 2a2 FLAG arm (antibody) DVVMTQSPDSLAVSLGERATINCKSSQSIVHRNGNTYLEWYQQKPGQPPKLLIYKVSNRFSGVPDRFSGSGSGTDFTLTISSLQAEDVAVYYCFQGSHVPYTFGGGTKLEIKGGGGSGGGGSGGGGSQVQLVQSGAEVKKPGASVKVSCKASGYSFTTYTIHWVRQAPGQGLEWIGYINPSSGYAAYNQKFQGRVTLTADKSTSTAYMELSSLRSEDTAVYYCAREKFYGYDYWGQGTTVTVSS
9 | 5.13 nM and 2.63 nM and 3.04 nM | BEAT 2a3 FLAG arm (antibody) DVVMTQSPDSLAVSLGERATINCKSSQSIVHRNGNTYLEWYQQKPGQPPKLLIYKVSNRFSGVPDRFSGSGSGTDFTLTISSLQAEDVAVYYCFQGSHVPYTFGGGTKLEIKGGGGSGGGGSGGGGSQVQLVQSGAEVKKPGASVKVSCKASGYSFTTYTIHWVRQAPGQGLEWIGYINPSSGYAAYNQKFQGRVTLTADKSTSTAYMELSSLRSEDTAVYYCAREKFYGYDYWGQGTTVTVSS

Target: T2, FLAG-BAP
Experiment: SPR
Remark: another data set of the same source

Row | Kd | Binder
10 | 15.5 nM and 27.4 nM | BEAT 1a6 FLAG arm (antibody) QVQLVQSGAEVKKPGASVKVSCKASGYSFTTYTIHWVRQAPGQGLEWIGYINPSSGYAAYNQKFQGRVTLTADKSTSTAYMELSSLRSEDTAVYYCAREKFYGYDYWGQGTTVTVSSGGGGSGGGGSGGGGSGGGGASDVVMTQSPDSLAVSLGERATINCKSSQSIVHRNGNTYLEWYQQKPGQPPKLLIYKVSNRFSGVPDRFSGSGSGTDFTLTISSLQAEDVAVYYCFQGSHVPYTFGGGTKLEIK
11 | 10.1 nM and 8.85 nM | BEAT 1a8 FLAG arm (antibody) QVQLVQSGAEVKKPGASVKVSCKASGYSFTTYTIHWVRQAPGQGLEWIGYINPSSGYAAYNQKFQGRVTLTADKSTSTAYMELSSLRSEDTAVYYCAREKFYGYDYWGQGTTVTVSSGGGGSGGGGSGGGGSGGGGASDVVMTQSPDSLAVSLGERATINCKSSQSIVHRNGNTYLEWYQQKPGQPPKLLIYKVSNRFSGVPDRFSGSGSGTDFTLTISSLQAEDVAVYYCFQGSHVPYTFGGGTKLEIK
12 | 21.9 nM and 15.4 nM | BEAT 1a5 FLAG arm (antibody) QVQLVQSGAEVKKPGASVKVSCKASGYSFTTYTIHWVRQAPGQGLEWIGYINPSSGYAAYNQKFQGRVTLTADKSTSTAYMELSSLRSEDTAVYYCAREKFYGYDYWGQGTTVTVSSGGGGSGGGGSGGGGSGGGGASDVVMTQSPDSLAVSLGERATINCKSSQSIVHRNGNTYLEWYQQKPGQPPKLLIYKVSNRFSGVPDRFSGSGSGTDFTLTISSLQAEDVAVYYCFQGSHVPYTFGGGTKLEIK
13 | 10.9 nM and 13.5 nM and 7.81 nM | BEAT 1a7 FLAG arm (antibody) QVQLVQSGAEVKKPGASVKVSCKASGYSFTTYTIHWVRQAPGQGLEWIGYINPSSGYAAYNQKFQGRVTLTADKSTSTAYMELSSLRSEDTAVYYCAREKFYGYDYWGQGTTVTVSSGGGGSGGGGSGGGGSGGGGASDVVMTQSPDSLAVSLGERATINCKSSQSIVHRNGNTYLEWYQQKPGQPPKLLIYKVSNRFSGVPDRFSGSGSGTDFTLTISSLQAEDVAVYYCFQGSHVPYTFGGGTKLEIK
14 | 34.3 nM and 20.7 nM | V4 IgG (Anti-FLAG-M2-V4) (antibody, V domains shown) VH: QVQLVQSGAEVKKPGASVKVSCKASGYSFTTYTIHWVRQAPGQGLEWIGYINPSSGYAAYNQKFQGRVTLTADKSTSTAYMELSSLRSEDTAVYYCAREKFYGYDYWGQGTTVTVSS VL: DVVMTQSPDSLAVSLGERATINCKSSQSIVHRNGNTYLEWYQQKPGQPPKLLIYKVSNRFSGVPDRFSGSGSGTDFTLTISSLQAEDVAVYYCFQGSHVPYTFGGGTKLEIK
15 | 23.2 nM and 27.7 nM | V7 IgG (Anti-FLAG-M2-V7) (antibody, V domains shown) VH: QVQLVQSGAEVKKPGASVKVSCKASGYSFTTYTMHWVRQAPGQGLEWMGYINPSSGYAAYNQKFQGRVTMTADKSTSTAYMELSSLRSEDTAVYYCAREKFYGYDYWGQGTTVTVSS VL: DVVMTQSPDSLAVSLGERATINCKSSQSIVHRNGNTYLEWYQLKPGQPPKLLIYKVSNRFSGVPDRFSGSGSGTDFTLTISSLQAEDVAVYYCFQGSHVPYTFGGGTKLEIK
16 | 0.671 nM and 0.798 nM | BEAT 1a1 FLAG arm (antibody) DVVMTQSPDSLAVSLGERATINCKSSQSIVHRNGNTYLEWYQQKPGQPPKLLIYKVSNRFSGVPDRFSGSGSGTDFTLTISSLQAEDVAVYYCFQGSHVPYTFGGGTKLEIKGGGGSGGGGSGGGGSQVQLVQSGAEVKKPGASVKVSCKASGYSFTTYTIHWVRQAPGQGLEWIGYINPSSGYAAYNQKFQGRVTLTADKSTSTAYMELSSLRSEDTAVYYCAREKFYGYDYWGQGTTVTVSS
17 | 1.26 nM and 1.99 nM | BEAT 1a2 FLAG arm (antibody) DVVMTQSPDSLAVSLGERATINCKSSQSIVHRNGNTYLEWYQQKPGQPPKLLIYKVSNRFSGVPDRFSGSGSGTDFTLTISSLQAEDVAVYYCFQGSHVPYTFGGGTKLEIKGGGGSGGGGSGGGGSQVQLVQSGAEVKKPGASVKVSCKASGYSFTTYTIHWVRQAPGQGLEWIGYINPSSGYAAYNQKFQGRVTLTADKSTSTAYMELSSLRSEDTAVYYCAREKFYGYDYWGQGTTVTVSS
18 | 6.9 nM and 5.04 nM | BEAT 1a4 FLAG arm (antibody) DVVMTQSPDSLAVSLGERATINCKSSQSIVHRNGNTYLEWYQQKPGQPPKLLIYKVSNRFSGVPDRFSGSGSGTDFTLTISSLQAEDVAVYYCFQGSHVPYTFGGGTKLEIKGGGGSGGGGSGGGGSQVQLVQSGAEVKKPGASVKVSCKASGYSFTTYTIHWVRQAPGQGLEWIGYINPSSGYAAYNQKFQGRVTLTADKSTSTAYMELSSLRSEDTAVYYCAREKFYGYDYWGQGTTVTVSS
19 | 1.22 nM and 1.24 nM and 1.65 nM | BEAT 1a3 FLAG arm (antibody) DVVMTQSPDSLAVSLGERATINCKSSQSIVHRNGNTYLEWYQQKPGQPPKLLIYKVSNRFSGVPDRFSGSGSGTDFTLTISSLQAEDVAVYYCFQGSHVPYTFGGGTKLEIKGGGGSGGGGSGGGGSQVQLVQSGAEVKKPGASVKVSCKASGYSFTTYTIHWVRQAPGQGLEWIGYINPSSGYAAYNQKFQGRVTLTADKSTSTAYMELSSLRSEDTAVYYCAREKFYGYDYWGQGTTVTVSS

Target: T1, FLAG tag antigen
Experiment: SPR bivalent

Row | Kd [nM] | Binder
20 | 0.91 | V4 IgG (Anti-FLAG-M2-V4) (antibody, V domains shown) VH: QVQLVQSGAEVKKPGASVKVSCKASGYSFTTYTIHWVRQAPGQGLEWIGYINPSSGYAAYNQKFQGRVTLTADKSTSTAYMELSSLRSEDTAVYYCAREKFYGYDYWGQGTTVTVSS VL: DVVMTQSPDSLAVSLGERATINCKSSQSIVHRNGNTYLEWYQQKPGQPPKLLIYKVSNRFSGVPDRFSGSGSGTDFTLTISSLQAEDVAVYYCFQGSHVPYTFGGGTKLEIK
21 | 1.3 | V7 IgG (Anti-FLAG-M2-V7) (antibody, V domains shown) VH: QVQLVQSGAEVKKPGASVKVSCKASGYSFTTYTMHWVRQAPGQGLEWMGYINPSSGYAAYNQKFQGRVTMTADKSTSTAYMELSSLRSEDTAVYYCAREKFYGYDYWGQGTTVTVSS VL: DVVMTQSPDSLAVSLGERATINCKSSQSIVHRNGNTYLEWYQLKPGQPPKLLIYKVSNRFSGVPDRFSGSGSGTDFTLTISSLQAEDVAVYYCFQGSHVPYTFGGGTKLEIK
22 | 0.96 | Parental anti-FLAG (chimeric) (antibody, V domains shown) VH: QVQLQQSAGELARPGASVKMSCKASGYSFTTYTIHWVKQRPGQGLEWIGYINPSSGYAAYNQNFKDETTLTADKSSSTAYMQLSSLTSEDSAVYYCAREKFYGYDYWGQGTTLTVSS VL: DVLMTQLPLSLPVSLGDQASISCRSSQSIVHRNGNTYLEWYLLKPGQSPKLLIYKVSNRFSGVPDRFSGSGSGTDFTLKISRVEAEDLGVYYCFQGSHVPYTFGGGTKLEIK

The binders below were run against CD40 (human, UniProt P25942) (assay: SPR).
Sequence of CD40 (P25942 21-193): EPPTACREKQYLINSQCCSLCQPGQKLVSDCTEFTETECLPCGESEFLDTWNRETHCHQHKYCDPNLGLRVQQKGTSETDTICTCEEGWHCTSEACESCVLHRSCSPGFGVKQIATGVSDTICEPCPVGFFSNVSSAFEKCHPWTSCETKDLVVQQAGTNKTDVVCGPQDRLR

Row | Kd | Binder
23 | 0.957 nM and 0.975 nM | BEAT 1a3 CD40 arm (antibody, V domains shown) VH: not shown VL: DIQMTQSPSSVSASVGDRVTITCRASQGIYSWLAWYQQKPGKAPNLLIYTASTLQSGVPSRFSGSGSGTDFTLTISSLQPEDFATYYCQQANIFPLTFGGGTKVEIK
24 | 0.379 nM and 0.62 nM | BEAT 1b1 CD40 arm (antibody, V domains shown) VH: not shown VL: DIQMTQSPSSVSASVGDRVTITCRASQGIYSWLAWYQQKPGKAPNLLIYTASTLQSGVPSRFSGSGSGTDFTLTISSLQPEDFATYYCQQANIFPLTFGGGTKVEIK
25 | 0.371 nM and 0.394 nM | BEAT 1a6 CD40 arm (antibody, V domains shown) VH: not shown VL: DIQMTQSPSSVSASVGDRVTITCRASQGIYSWLAWYQQKPGKAPNLLIYTASTLQSGVPSRFSGSGSGTDFTLTISSLQPEDFATYYCQQANIFPLTFGGGTKVEIK
